No end group written: not given here.
Assays:
[1] = target: hemagglutinin (HA) of influenza virus type A subtype H3 A/Wuhan/359/95 (H3N2), ether extract (influenza virus type A, A/Wuhan/359/95 (H3N2))
[2] = target: hemagglutinin H3 (GM3 inhibition ELISA, strain not stated)
[3] = target: hemagglutinin (HA) of influenza virus type A subtype H1 A/PR/8/34 (H1N1), ether extract (influenza virus type A, A/PR/8/34 (H1N1)), P03452; test: phage ELISA, HA immobilised on plate, normalised to A-1 = 1
[4] = target: hemagglutinin (HA) of influenza virus type A subtype H3 A/Wuhan/359/95 (H3N2), ether extract (influenza virus type A, A/Wuhan/359/95 (H3N2)); test: as above

## ARLPRTMVHPKPAQP-NH2 [s-2 peptide, chemosynthesized, …-NH2]
[1]
  fold binding relative to A-1: 2.1 fold

## ARLPPTMVRPNGPQP-NH2 [e-1 peptide, chemosynthesized, …-NH2]
[1]
  fold binding relative to A-1: 1.2 fold

## ARLSPTMVHPNGAQP-NH2 [A-1 peptide, chemosynthesized, …-NH2]
[2]
  IC50: 1900 µM

## ARLPRTMVHPKPAQP (modifications not checked) [filamentous phage fd presenting peptide s-2 (SEQ ID NO: 3)]
[3]
  fold binding activity relative to A-1: 3 fold
[4]
  fold binding activity relative to A-1: 3 fold
